Binding result and Kd data for four molecules are collected here from patent US20250346878, “EDITING OF DOUBLE-STRANDED DNA WITH RELAXED PAM REQUIREMENT” (WUHAN UNIVERSITY, published 2025).

The target of data set [1] is T1, dAtCas9 (Alicyclobacillus tengchongensis, D8A,H617A,N640A).
T1 chain: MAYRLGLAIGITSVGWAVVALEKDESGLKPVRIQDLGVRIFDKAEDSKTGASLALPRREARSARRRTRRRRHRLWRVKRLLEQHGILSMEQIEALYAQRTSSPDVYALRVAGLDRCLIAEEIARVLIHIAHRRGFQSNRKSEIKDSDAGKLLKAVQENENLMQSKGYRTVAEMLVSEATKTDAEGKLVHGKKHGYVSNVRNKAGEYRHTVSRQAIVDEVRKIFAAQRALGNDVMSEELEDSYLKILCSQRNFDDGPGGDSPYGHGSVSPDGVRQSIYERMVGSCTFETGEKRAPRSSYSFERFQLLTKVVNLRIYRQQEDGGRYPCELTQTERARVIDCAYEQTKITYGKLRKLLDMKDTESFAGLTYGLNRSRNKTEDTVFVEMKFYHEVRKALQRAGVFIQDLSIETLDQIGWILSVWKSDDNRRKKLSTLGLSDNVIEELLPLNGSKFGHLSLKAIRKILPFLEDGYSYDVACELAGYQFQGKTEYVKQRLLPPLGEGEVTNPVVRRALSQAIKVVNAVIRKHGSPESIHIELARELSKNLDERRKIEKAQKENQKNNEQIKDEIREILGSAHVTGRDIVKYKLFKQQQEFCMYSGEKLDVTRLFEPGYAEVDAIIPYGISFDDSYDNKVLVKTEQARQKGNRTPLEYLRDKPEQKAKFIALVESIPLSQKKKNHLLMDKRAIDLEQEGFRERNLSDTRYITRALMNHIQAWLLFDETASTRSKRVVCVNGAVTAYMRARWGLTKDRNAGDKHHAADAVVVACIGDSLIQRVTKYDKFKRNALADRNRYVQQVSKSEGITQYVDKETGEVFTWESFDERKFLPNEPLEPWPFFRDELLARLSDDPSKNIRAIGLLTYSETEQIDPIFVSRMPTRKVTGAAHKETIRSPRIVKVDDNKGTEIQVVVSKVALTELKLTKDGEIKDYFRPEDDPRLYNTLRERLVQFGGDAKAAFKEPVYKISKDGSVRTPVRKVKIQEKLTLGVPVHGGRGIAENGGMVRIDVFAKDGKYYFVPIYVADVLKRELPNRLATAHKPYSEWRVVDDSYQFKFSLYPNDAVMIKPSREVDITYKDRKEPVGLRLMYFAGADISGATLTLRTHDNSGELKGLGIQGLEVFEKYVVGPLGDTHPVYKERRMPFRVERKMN
The data set can be described thus: EMSA; PAM CTAA. The conditions noted are these: tags: 6xHis; label: Cy5; NcoI-linearized plasmid. As for the experimental part:
(§1) A. Schematic diagram of AtCas9 domain structure showing RuvC and HNH nuclease domain mutation site. BH, arginine-rich bridge helix; REC, recognition lobe; L1, linker 1; L2, linker 2; WED, Wedge domain; TOPO, Topoisomerase-homology domain; CTD, C-terminal domain; HNH, HNH domain; D, Aspartic acid; H, Histidine; N, Asparagine; A, Alanine. B. (left) Electrophoretic mobility shift assay (EMSA) were carried out by incubating AtCas9 RNP with 25 nM Cy5-labeled oligonucleotides (50 bp) in buffer16 without Mg²⁺. […] (right) Catalytically dead AtCas9 (dAtCas9, D8A H617A N640A) were used for EMSA assay in the presence of Mg²⁺ C. […] The bulge substrate details are illustrated in FIG. 10B. […] MUT PAM TATA and WT PAM CTAA was used. D. Higher binding affinity of AtCas9 RNPs towards negative supercoiled dsDNA than linear dsDNA. 1 nM cy5-labeled negative supercoil plasmid or NcoI-linearized plasmid containing PAM (CTAA) or mutant PAM (TGAC) motif were incubated with dAtCas9 RNP complex at indicated dosage. ProK, Proteinase K.
(§2) dAtCas9 and sgRNA were mixed at 1:2 molar ratio in 1×buffer16. After incubation at room temperature for 10 minutes, the RNP mixture were diluted to various concentration ranging from […] to 0.6 nM and 4 nM cy5-labeled oligonucleotides was added. Binding reactions were carried out at 55° C. for 30 minutes. Samples were resolved on 4% native TBE-PAGE for oligonucleotides. […]

In data set [2] the target is T1, dAtCas9. The data set can be described thus: EMSA; SD 10.9; buffer16 with 10 mM Mg2+, 55C; PAM CTAA. The following applies: tags: 6xHis; label: 5' Cy5. The procedure:
as §1, §2

The target of data set [3] is T2, dAtCas9-D1089A (Alicyclobacillus tengchongensis, D8A,H617A,N640A,D1089A).
T2 chain: T1 chain with D1089A
The data set can be described thus: EMSA; SD 15.39; PAM CTAA. The conditions noted are these: tags: 6xHis; label: 5' Cy5. From the text: (§3) A. Schematic representation of AtCas9 domain structure showing the positions of PAM-interacting (PI) mutations. BH, arginine-rich bridge helix; REC, recognition lobe; L1, L1 linker; L2, L2 linker; WED, Wedge domain; TOPO, Topoisomerase-homology domain; CTD, C-terminal domain; HNH, HNH domain; RuvC, RuvC domain; D, Aspartic acid; I, Isoleucine; S, Serine; G, Glycine; A, Alanine. B. Negative supercoil and linearized DNA of different PAM were cleaved by WT AtCas9 and two PI mutants, m4 and m5. Each PAM variant has at least two distinct spacer sequences for cleavage assays. Use Image Lab software to analyzed the percentage of cutting products and take the average value of each PAM variant for graphing. m4, D1089A; m5, D1089A S1091A G1092A. C. Sequence logo for the AtCas9 PI domain mutant m4 (D1089A) PAM as determined by linearized PAM library substrates cleavage assay. D. EMSA assay were performed with 5′ cy5-labeled oligonucleotides carrying WT PAM (CTAA, left) or MUT PAM (TATA, right), and dAtCas9 or dAtCas9-D1089A RNP complex titrating from 1.2 nM to 2.4 μM. […] E. SpCas9 RNPs hardly bind to mut PAM (GTC) dsDNA compared with wt PAM (AGG) dsDNA. KD±SD for SpCas9 to WT PAM dsDNA, 300±10.57 nM; KD±SD for SpCas9 to MUT PAM dsDNA, ˜2.495e+18 nM.
(§4) dAtCas9 and sgRNA were mixed at 1:2 molar ratio in 1×buffer16. […]

The target in data set [4] is T1, dAtCas9. The data set is described as follows: EMSA; SD 12.05; second measurement, PAM CTAA; guide 21a sgRNA-At. The conditions noted are these: tags: 6xHis; label: 5' Cy5.
From the text: as §3, §4

Data set [5] addresses T1, dAtCas9. The data set can be described thus: EMSA; SD 7.1; second measurement, mutated PAM TATA. The conditions noted are these: tags: 6xHis; label: 5' Cy5.
From the text: as §3, §4

The target in data set [6] is T1, dAtCas9. The data set can be described thus: EMSA; SD 4.5; mutated PAM TATA; buffer16, 55C. The following applies: tags: 6xHis; label: 5' Cy5. The procedure: as §1, §2
Data set [7] addresses T2, dAtCas9-D1089A. The data set can be described thus: EMSA; SD 13.6; PAM TATA. The conditions noted are these: tags: 6xHis; label: 5' Cy5.
From the text: as §3, §4

Data set [8] has as its target T1, dAtCas9. The data set is described as follows: EMSA; SD 12.2; mutated PAM TATA with 1-2 bulge. The conditions noted are these: tags: 6xHis; label: 5' Cy5; 2-base bulge at PAM-proximal positions 1-2. As for the experimental part: as §1, §2

Positions count from the first letter of the chain named.

B1: 27m sgRNA-At ; 27m WT PAM (CTAA) mini plasmid, linear (ssRNA ; dsDNA)
RNA: GAAGAUCCUUUGAUCUUUUCUACGGGUCAUAGUUCCCUCACAAGCCUCGAUGUGGUAUGAUGAAAAUCAUACCACAUCAAGGCUUGCGAGGUUGCUAUGAUAAGGCAACAGGCCGCAAAGCACUGACCCGCAUUCCAAUGAAUGCGGGUCAUCUACUUUUU
DNA 1: GAAGATCCTTTGATCTTTTCTACGGGGTCCTAA
DNA 2: TTAGGACCCCGTAGAAAAGATCAAAGGATCTTC
In the case of B1, the binding result with dAtCas9 [1] is reported as “binds”.

B2: 21a sgRNA-At full length ; 50 bp 21a WT PAM (CTAA) (ssRNA ; dsDNA)
RNA: AAAUGCCUUCGAUUUUACCCCAACGAAUAAGUCAUAGUUCCCUCACAAGCCUCGAUGUGGUAUGAUGAAAAUCAUACCACAUCAAGGCUUGCGAGGUUGCUAUGAUAAGGCAACAGGCCGCAAAGCACUGACCCGCAUUCCAAUGAAUGCGGGUCAUCUACUUUUU
DNA 1: AAATGCCTTCGATTTTACCCCAACGAATAACAGGCTAAAATATGGACCTG
DNA 2: CAGGTCCATATTTTAGCCTGTTATTCGTTGGGGTAAAATCGAAGGCATTT
In the case of B2, the values for the Kd in the data set with dAtCas9 [2], in the data set with dAtCas9-D1089A [3] and with dAtCas9 [4] were 22.4 nM, 44.4 nM and 26.2 nM, respectively.

B3: 21a sgRNA-At full length ; 50 bp 21a mutated PAM (TATA), 0 bulge (ssRNA ; dsDNA)
RNA: B2 RNA
DNA 1: AAATGCCTTCGATTTTACCCCAACGAATAAGTCATATAAATATGGACCTG
DNA 2: CAGGTCCATATTTATATGACTTATTCGTTGGGGTAAAATCGAAGGCATTT
For the molecule B3, the dissociation constant Kd in the data set with dAtCas9 [5] was determined as 109 nM; with dAtCas9 [6], 248 nM; in the data set with dAtCas9-D1089A [7], 27.1 nM.

B4: 21a sgRNA-At full length ; 50 bp 21a mutated PAM, 1-2 bulge (ssRNA ; dsDNA)
RNA: B2 RNA
DNA 1: B3 DNA 1 with A29T, A30T
DNA 2: B3 DNA 2
In the data set with dAtCas9 [8], B4 displayed a Kd of 29.5 nM.
